In experiment [1] the target is T1, recombinant human IL-6R (human, UniProt P08887 20-365, limits assumed).
T1 construct: Recombinant protein used in ELISA and as SPR analyte; also called hIL-6R
T1 sequence (looked up): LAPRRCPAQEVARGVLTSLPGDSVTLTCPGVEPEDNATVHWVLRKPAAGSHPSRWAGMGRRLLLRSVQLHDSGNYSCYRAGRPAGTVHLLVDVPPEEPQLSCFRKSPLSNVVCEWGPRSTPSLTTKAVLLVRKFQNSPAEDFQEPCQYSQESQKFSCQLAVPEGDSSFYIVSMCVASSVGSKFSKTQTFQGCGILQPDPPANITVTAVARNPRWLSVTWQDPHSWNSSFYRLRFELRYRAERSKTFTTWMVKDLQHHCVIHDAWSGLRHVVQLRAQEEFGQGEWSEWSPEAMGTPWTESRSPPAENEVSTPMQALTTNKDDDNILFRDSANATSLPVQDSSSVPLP
The experiment can be described thus: ELISA on plate-coated recombinant human IL-6R; anti-human IgG1-Fc-HRP, OD450. As to the method: (§1) After non-specific blocking using 1% BSA at 25° C. for 1 hour, a series of dilutions of test antibodies (“Abs”) were added into the coated wells and incubated at 25° C. for 1 hour. The bound Abs were detected using a secondary Ab (goat anti-human IgG1-Fc) conjugated with HRP followed by OD₄₅₀ reading.
(§2) The same ELISA procedure was performed with recombinant human IL-6R. […] Vobarilizumab is a single domain antibody against IL-6R. B781402 and B781405 are bispecific fusion antibodies that inhibit VEGF-A, B, PIGF and IL-6R.

Experiment [2] has as its target T1, recombinant human IL-6R. Described as above. The procedure: as §1, §2
This is another data set of the same source.

Experiment [3] addresses T1, recombinant human IL-6R. The experiment can be described thus: SPR Biacore, 25 C; test antibody captured by anti-human IgG (Fc) on CM5 chip, target protein as analyte; 1:1 model. As to the method:
(§3) SPR Biacore assay was performed at 25° C. with HBS-EP+ as a running buffer. The assay was performed by immobilization of the anti-human IgG (Fc) antibody onto the CM5 sensor chip surface and determined the level of ligand immobilization. […] Test antibodies were injected over the surface of Series S Sensor Chip CM5 as Capture. The analytes (target proteins) were diluted with running buffer into different concentrations and injected over the sensor surface as the association phase for affinity and kinetics measurements. The 1:1 binding model was used to measure the binding affinity and/or kinetics.
In general terms: SPR reads the build-up and loss of mass on a sensor chip optically.

The target in experiment [4] is T1, recombinant human IL-6R. Described as above. As to the method: as §3
The source holds these as a separate data set.

The target of experiment [5] is T2, human IL-6R overexpressed on engineered CHO-S cells (human, UniProt P08887 20-468).
T2 construct: whole, on cells; also called IL-6R-expressing CHO-S cells
T2 sequence (looked up): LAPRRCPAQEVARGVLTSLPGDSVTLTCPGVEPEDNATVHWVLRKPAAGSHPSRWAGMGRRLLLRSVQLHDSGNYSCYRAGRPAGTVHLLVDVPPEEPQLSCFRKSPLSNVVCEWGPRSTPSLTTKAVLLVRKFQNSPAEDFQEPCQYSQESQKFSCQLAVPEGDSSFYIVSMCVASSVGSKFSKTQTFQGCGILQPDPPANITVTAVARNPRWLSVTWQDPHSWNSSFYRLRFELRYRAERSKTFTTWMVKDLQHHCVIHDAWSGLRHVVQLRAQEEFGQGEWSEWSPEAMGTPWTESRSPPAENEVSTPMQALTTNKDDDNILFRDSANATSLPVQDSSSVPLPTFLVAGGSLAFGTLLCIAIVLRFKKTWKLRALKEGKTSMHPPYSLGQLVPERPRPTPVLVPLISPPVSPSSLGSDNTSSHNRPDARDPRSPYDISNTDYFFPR
Put plainly: FACS competition: antibody with biotinylated human IL-6 and CHO-S cells overexpressing human IL-6R; blocked: IL-6 binding to IL-6R. The source says: (§4) Vobarilizumab is a single domain antibody (also termed nanobody) against human IL-6R.

In experiment [6] the target is T2, human IL-6R overexpressed on engineered …. The experiment is described as above.
Text: as §4
The source holds these as a separate data set.

For experiment [7], the target named is T3, human Ang-1-Fc (human, UniProt Q15389 20-498, limits assumed).
T3 construct: not shown: Fc part
T3 sequence (looked up): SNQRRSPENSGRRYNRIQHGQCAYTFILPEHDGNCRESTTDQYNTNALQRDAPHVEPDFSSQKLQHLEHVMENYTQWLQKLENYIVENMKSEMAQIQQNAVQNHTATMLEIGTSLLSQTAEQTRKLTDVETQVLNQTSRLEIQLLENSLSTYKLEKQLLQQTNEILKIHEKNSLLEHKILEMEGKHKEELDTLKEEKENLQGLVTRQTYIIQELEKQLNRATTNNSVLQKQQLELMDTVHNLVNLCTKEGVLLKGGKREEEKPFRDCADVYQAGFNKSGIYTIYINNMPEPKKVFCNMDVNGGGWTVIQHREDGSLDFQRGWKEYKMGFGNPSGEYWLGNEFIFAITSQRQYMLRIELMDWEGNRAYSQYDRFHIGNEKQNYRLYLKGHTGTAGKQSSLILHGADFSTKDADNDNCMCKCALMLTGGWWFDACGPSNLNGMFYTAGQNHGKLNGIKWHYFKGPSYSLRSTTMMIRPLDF
The experiment can be described thus: FACS competition: soluble human Tie-2 ECD (positive control) pre-incubated with 2 µg/ml human Ang-1-Fc, then HEK-293 cells overexpressing human Tie-2; blocked: Ang-1-Fc binding to cell-bound Tie-2.

In experiment [8] the target is T3, human Ang-1-Fc. The experiment can be described thus: FACS competition: soluble recombinant hTie-2 (positive control) pre-incubated with 2 µg/ml human Ang-1-Fc, then HEK-293 cells overexpressing human Tie-2; blocked: Ang-1-Fc binding to cell-bound Tie-2.

Like-named read-outs stand apart in the source and are kept apart here.

B1: Tocilizumab (antibody, V domains shown)
VH: QVQLQESGPGLVRPSQTLSLTCTVSGYSITSDHAWSWVRQPPGRGLEWIGYISYSGITTYNPSLKSRVTMLRDTSKNQFSLRLSSVTAADTAVYYCARSLARTTAMDYWGQGSLVTVSS
VL: DIQMTQSPSSLSASVGDRVTITCRASQDISSYLNWYQQKPGKAPKLLIYYTSRLHSGVPSRFSGSGSGTDFTFTISSLQPEDIATYYCQQGNTLPYTFGQGTKVEIKR
notes: mAb against human IL-6R used as comparator
As to B1, the figures for the EC50 with recombinant human IL-6R [1] and in the experiment with recombinant human IL-6R [2] were 0.05 nM and 0.028 nM, respectively. Also, the equilibrium dissociation constant (Kd) with recombinant human IL-6R [3] came to 1.1 nM; with recombinant human IL-6R [4] it was 1.4 nM. Further, the koff was found to be 0.00046 s⁻¹ with recombinant human IL-6R [3] and 0.000521 s⁻¹ in the experiment with recombinant human IL-6R [4]. Also, the on-rate constant (kon) worked out at 420000 M⁻¹ s⁻¹ in the experiment with recombinant human IL-6R [3] and 373000 M⁻¹ s⁻¹ with recombinant human IL-6R [4]. Further, the half-inhibitory concentration (IC50) in experiment [5] was determined as 0.756 nM; in experiment [6], 1.82 nM.

B2: hTie2 (receptor)
chain: AMDLILINSLPLVSDAETSLTCIASGWRPHEPITIGRDFEALMNQHQDPLEVTQDVTREWAKKVVWKREKASKINGAYFCEGRVRGEAIRIRTMKMRQQASFLPATLTMTVDKGDNVNISFKKVLIKEEDAVIYKNGSFIHSVPRHEVPDILEVHLPHAQPQDAGVYSARYIGGNLFTSAFTRLIVRRCEAQKWGPECNHLCTACMNNGVCHEDTGECICPPGFMGRTCEKACELHTFGRTCKERCSGQEGCKSYVFCLPDPYGCSCATGWKGLQCNEACHPGFYGPDCKLRCSCNNGEMCDRFQGCLCSPGWQGLQCEREGIQRMTPKIVDLPDHIEVNSGKFNPICKASGWPLPTNEEMTLVKPDGTVLHPKDFNHTDHFSVAIFTIHRILPPDSGVWVCSVNTVAGMVEKPFNISVKVLPKPLNAPNVIDTGHNFAVINISSEPYFGDGPIKSKKLLYKPVNHYEAWQHIQVTNEIVTLNYLEPRTEYELCVQLVRRGEGGEGHPGPVRRFTTASIGLPPPRGLNLLPKSQTTLNLTWQPIFPSSEDDFYVEVERRSVQKSDQQNIKVPGNLTSVLLNNLHPREQYVVRARVNTKAQGEWSEDLTAWTLSDILPPQPENIKISNITHSSAVISWTILDGYSISSITIRYKVQGKNEDQHVDVKIKNATITQYQLKGLEPETAYQVDIFAENNIGSSNPAFSHELVTLPESQAPADLGGGKMLL
notes: also called human Tie-2 ECD; recombinant hTie-2
Turning to B2, the IC50 in the experiment with human Ang-1-Fc [7] stood at 42.9 nM; with human Ang-1-Fc [8], 53 nM.

B3: Vobarilizumab (VHH)
VHH 1: EVQLVESGGGLVQPGGSLRLSCAASGSVFKINVMAWYRQAPGKGRELVAGIISGGSTSYADSVKGRFTISRDNAKNTLYLQMNSLRPEDTAVYYCAFITTESDYDLGRRYWGQGTLVTVSS
VHH 2: QIILTQSPAIMSASLGEEITLTCSATSSVTYVHWYQQKSGTSPKLLIYGTSNLASGVPSRFSGSGSGTFYSLTVSSVEAEDAADYYCHQWNSYPHTFGGGTKLEIK
Take B3: the results for the EC50 in the experiment with recombinant human IL-6R [1] and in the experiment with recombinant human IL-6R [2] were 1.39 nM and 1.36 nM, respectively.

In general, EC50 refers to the concentration that produces a half-maximal response. As a reminder, the Kd is the concentration at which binding is half-saturated. What is called koff is the first-order rate constant of dissociation. One may read the kon as the rate constant with which the complex forms. A word on the IC50: it is the midpoint of a concentration-inhibition curve.

(Values after US20260265359A1 (Hoffmann-La Roche, published 2026).)
